Results on eight molecules are retold here after article PMC4060006, “SM proteins Sly1 and Vps33 co-assemble with Sec17 and SNARE complexes to oppose SNARE disassembly by Sec18” (eLife, 2014).

B1: His6-Sec22 (soluble domain, aa1-188) (domain or fragment, S. cerevisiae, UniProt P22214 1-188, looked up)
chain: MIKSTLIYREDGLPLCTSVDNENDPSLFEQKQKVKIVVSRLTPQSATEATLESGSFEIHYLKKSMVYYFVICESGYPRNLAFSYLNDIAQEFEHSFANEYPKPTVRPYQFVNFDNFLQMTKKSYSDKKVQDNLDQLNQELVGVKQIMSKNIEDLLYRGDSLDKMSDMSSSLKETSKRYRKSAQKINFD
notes: Sec22, Golgi R-SNARE, S. cerevisiae, soluble domain aa1-188; also called Golgi R-SNARE; source: E. coli (pRIL plasmid), purified (Ni-NTA); not shown: His6, N-terminal, kept
B3: GST-Sed5 SNARE domain (aa170-319) (domain or fragment, S. cerevisiae, UniProt Q01590 170-319, looked up)
chain: ANKDRWQKLTTDTGHAPADDQTQSNHAADLTTYNNSNPFMTSLLDESSEKNNNSSNQGELSFPQNDSQLMLMEEGQLSNNVYLQERNRAVETIESTIQEVGNLFQQLASMVQEQGEVIQRIDANVDDIDLNISGAQRELLKYFDRIKSNR
notes: Sed5, Golgi Qa-SNARE, S. cerevisiae, aa170-319, lacks the N-peptide, the Habc domain and the transmembrane domain; also called Golgi Qa-SNARE lacking N-peptide and Habc domain; not shown: GST, N-terminal, kept
B5: Vam3-GST (cytoplasmic domain of Vam3, aa1-264) (domain or fragment, S. cerevisiae, UniProt Q12241 1-264, looked up)
chain: MSFFDIEAQSSKGNSQQEPQFSTNQKTKELSNLIETFAEQSRVLEKECTKIGSKRDSKELRYKIETELIPNCTSVRDKIESNILIHQNGKLSADFKNLKTKYQSLQQSYNQRKSLFPLKTPISPGTSKERKDIHPRTEAVRQDPESSYISIKVNEQSPLLHNEGQHQLQLQEEQEQQQQGLSQEELDFQTIIHQERSQQIGRIHTAVQEVNAIFHQLGSLVKEQGEQVTTIDENISHLHDNMQNANKQLTRADQHQRDRNKCGK
notes: Vam3, vacuole Qa-SNARE, S. cerevisiae, cytoplasmic domain aa1-264, no transmembrane domain; TEV site between SNARE and GST; also called Vam3 cytoplasmic domain; vacuole Qa-SNARE; not shown: GST, C-terminal, kept

Holding throughout (settings): both partners purified
For assay [1], the target named is T1, GST-Sed5 full cytoplasmic domain (aa1-319) (S. cerevisiae, UniProt Q01590 1-319).
T1 construct: Sed5, Golgi Qa-SNARE, S. cerevisiae, full cytoplasmic domain aa1-319 with N-peptide and Habc segments, no transmembrane domain; also called GST-Sed5FL; Sed5FL; not shown: GST, N-terminal, kept
T1 sequence (looked up): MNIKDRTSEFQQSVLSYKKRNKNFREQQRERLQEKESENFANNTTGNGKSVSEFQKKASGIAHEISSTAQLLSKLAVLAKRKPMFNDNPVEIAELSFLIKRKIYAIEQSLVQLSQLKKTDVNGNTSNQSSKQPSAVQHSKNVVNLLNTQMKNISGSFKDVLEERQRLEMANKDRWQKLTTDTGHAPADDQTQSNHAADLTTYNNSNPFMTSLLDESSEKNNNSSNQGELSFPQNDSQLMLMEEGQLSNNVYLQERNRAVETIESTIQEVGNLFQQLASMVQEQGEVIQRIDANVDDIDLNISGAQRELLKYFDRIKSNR
The assay can be described thus: pull-down; SNARE complex assembly: 125 pmol GST-tagged Qa-SNARE on glutathione sepharose 4B; >=fivefold molar excess of Qb-, Qc- and R-SNAREs overnight at 4°C; SM Assay Buffer (20 mM HEPES, 150 mM NaCl, 2 mM 2-mercaptoethanol, 0.05% Anapoe-X-100, pH 7.4); washed.

Assay [2] deals with B5. The assay can be described thus: pull-down; re-assembly with added SNAREs: as a9, but soluble Qb, Qc and R-SNAREs (~3 µM each) added along with the EDTA quench, 30 min at 30°C.
Assay [3] deals with T2, Sly1 (full length, aa1-667) (S. cerevisiae, UniProt P22213 1-666).
T2 construct: Sly1, Golgi SM protein, S. cerevisiae, printed as full-length aa1-667; construct His6-(tev)-Sly1; as I recall the UniProt entry has 666 residues; the printed 667 may count the stop codon; also called His6-Sly1; Golgi SM protein; source: E. coli (pRIL plasmid), purified (Ni-NTA)
T2 sequence (looked up): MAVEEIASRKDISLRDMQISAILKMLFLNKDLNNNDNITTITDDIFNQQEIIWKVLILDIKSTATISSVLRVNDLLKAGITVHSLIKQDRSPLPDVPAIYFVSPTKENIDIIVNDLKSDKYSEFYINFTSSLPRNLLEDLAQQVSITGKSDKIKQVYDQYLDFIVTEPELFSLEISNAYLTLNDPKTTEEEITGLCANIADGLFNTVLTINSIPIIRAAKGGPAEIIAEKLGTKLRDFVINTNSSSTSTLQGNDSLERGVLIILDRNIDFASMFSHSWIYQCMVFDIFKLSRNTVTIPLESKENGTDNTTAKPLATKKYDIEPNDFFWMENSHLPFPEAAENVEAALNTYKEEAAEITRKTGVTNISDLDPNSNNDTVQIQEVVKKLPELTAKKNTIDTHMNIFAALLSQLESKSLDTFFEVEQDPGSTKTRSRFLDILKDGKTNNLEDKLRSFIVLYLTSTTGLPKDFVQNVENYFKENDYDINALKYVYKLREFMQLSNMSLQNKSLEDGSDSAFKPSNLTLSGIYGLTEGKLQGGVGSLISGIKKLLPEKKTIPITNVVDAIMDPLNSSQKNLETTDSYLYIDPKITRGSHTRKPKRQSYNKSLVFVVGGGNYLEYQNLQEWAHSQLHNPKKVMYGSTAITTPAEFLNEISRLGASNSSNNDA
As to the kind of experiment: pull-down; SNARE complexes (500 nM) on immobilised Qa-SNARE pre-incubated with Sec17 (20 µM) and Sly1 (10 µM) or Vps33 (2.5 µM) 60 min at 30°C in Disassembly Buffer (SM Assay Buffer, 1 mM ATP, 2 mM MgCl2), then Sec18 (300 nM); what stayed on the resin after complete disassembly, SDS-PAGE.

In assay [4] the target is B1. The assay can be described thus: pull-down; re-assembly with added SNAREs: as a9, but soluble Qb, Qc and R-SNAREs (~3 µM each) added along with the EDTA quench, 30 min at 30°C.
For assay [5], the target named is B3. Described as above.
A further assay deals with T3, Vps33 (S. cerevisiae, UniProt P20795 1-691).
T3 construct: Vps33, SM protein of the vacuole, S. cerevisiae; also called vacuole SM protein; late endolysosomal SM; source: insect cells, Baculovirus system, purified
T3 sequence (looked up): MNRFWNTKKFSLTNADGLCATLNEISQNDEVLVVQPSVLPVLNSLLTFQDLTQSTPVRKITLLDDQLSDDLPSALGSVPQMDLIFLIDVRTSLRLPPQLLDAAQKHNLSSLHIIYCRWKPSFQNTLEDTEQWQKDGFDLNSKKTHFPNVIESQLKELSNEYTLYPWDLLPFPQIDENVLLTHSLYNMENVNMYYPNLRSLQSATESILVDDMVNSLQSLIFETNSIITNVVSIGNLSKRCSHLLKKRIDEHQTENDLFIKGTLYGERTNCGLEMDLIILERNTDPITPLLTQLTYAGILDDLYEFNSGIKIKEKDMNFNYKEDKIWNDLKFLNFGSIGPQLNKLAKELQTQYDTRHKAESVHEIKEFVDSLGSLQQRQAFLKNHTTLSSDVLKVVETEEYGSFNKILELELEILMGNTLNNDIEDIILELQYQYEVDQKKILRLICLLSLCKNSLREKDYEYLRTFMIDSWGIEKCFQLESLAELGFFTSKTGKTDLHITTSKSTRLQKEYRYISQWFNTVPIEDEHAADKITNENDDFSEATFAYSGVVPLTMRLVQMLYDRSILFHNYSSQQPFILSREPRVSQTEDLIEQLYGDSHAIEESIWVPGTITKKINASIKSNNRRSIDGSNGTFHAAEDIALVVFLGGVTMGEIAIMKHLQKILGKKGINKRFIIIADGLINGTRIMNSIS
As to the kind of experiment: pull-down; SNARE complexes (500 nM) on immobilised Qa-SNARE pre-incubated with Sec17 (20 µM) and Sly1 (10 µM) or Vps33 (2.5 µM) 60 min at 30°C in Disassembly Buffer (SM Assay Buffer, 1 mM ATP, 2 mM MgCl2), then Sec18 (300 nM); what stayed on the resin after complete disassembly, SDS-PAGE.

Assay [6] addresses B5. The assay can be described thus: pull-down; SNARE complex assembly: 125 pmol GST-tagged Qa-SNARE on glutathione sepharose 4B; >=fivefold molar excess of Qb-, Qc- and R-SNAREs overnight at 4°C; SM Assay Buffer (20 mM HEPES, 150 mM NaCl, 2 mM 2-mercaptoethanol, 0.05% Anapoe-X-100, pH 7.4); washed.

Regarding B1, the binding result in assay [1] was “binds”.

B2: His6-GFP-Vam7 SNARE domain (aa190-316) (domain or fragment, S. cerevisiae, UniProt P32912 190-316, looked up)
chain: PSTEVTRRAALLRSLLKECDDIGTANIAQDRGRLLGVATSDNSSTTEVQGRTNNDLQQGQMQMVRDQEQELVALHRIIQAQRGLALEMNEELQTQNELLTALEDDVDNTGRRLQIANKKARHFNNSA
notes: Vam7, vacuole Qc-SNARE, S. cerevisiae, SNARE domain aa190-316; also called vacuole Qc-SNARE; source: E. coli (pRIL plasmid), purified (Ni-NTA); not shown: His6, N-terminal, kept; GFP (A207K), N-terminal, kept
Turning to B2, the binding result in assay [2] is on record as “binds”. For B3, the binding result in assay [3] and in assay [4] was “binds” in each case.

B4: His7-MBP-Bet1 (soluble domain, aa1-123) (domain or fragment, S. cerevisiae, UniProt P22804 1-123, looked up)
chain: MSSRFAGGNAYQRDTGRTQLFGPADGSNSLDDNVSSALGSTDKLDYSQSTLASLESQSEEQMGAMGQRIKALKSLSLKMGDEIRGSNQTIDQLGDTFHNTSVKLKRTFGNMMEMARRSGISIK
notes: Bet1, Golgi Qc-SNARE, S. cerevisiae, soluble domain aa1-123; also called Golgi Qc-SNARE; source: E. coli (pRIL plasmid), purified (Ni-NTA); not shown: His7, N-terminal, kept; MBP, N-terminal, kept
As for B4, the binding result in assay [5] and in assay [1] was “binds” throughout. Take B5: the binding result in the assay with Vps33 is “binds”.

B6: His6-Nyv1 (soluble domain, aa1-231) (domain or fragment, S. cerevisiae, UniProt Q12255 1-231, looked up)
chain: MKRFNVSYVEVIKNGETISSCFQPFQKNENYGTITSANEQITPVIFHNLIMDMVLPKVVPIKGNKVTKMSMNLIDGFDCFYSTDDHDPKTVYVCFTLVDMPKILPIRILSGLQEYESNATNELLSSHVGQILDSFHEELVEYRNQTLNSSGNGQSSNGNGQNTISDIGDATEDQIKDVIQIMNDNIDKFLERQERVSLLVDKTSQLNSSSNKFRRKAVNIKEIMWWQKVKN
notes: Nyv1, vacuole R-SNARE, S. cerevisiae, soluble domain aa1-231; also called vacuole R-SNARE; source: E. coli (pRIL plasmid), purified (Ni-NTA); not shown: His6, N-terminal, kept
B6: the binding result in assay [2] is given as “binds”.

B7: His7-MBP-Vti1 (soluble domain, aa1-194) (domain or fragment, S. cerevisiae, UniProt Q04338 1-194, looked up)
chain: MSSLLISYESDFKTTLEQAKASLAEAPSQPLSQRNTTLKHVEQQQDELFDLLDQMDVEVNNSIGDASERATYKAKLREWKKTIQSDIKRPLQSLVDSGDRDRLFGDLNASNIDDDQRQQLLSNHAILQKSGDRLKDASRIANETEGIGSQIMMDLRSQRETLENARQTLFQADSYVDKSIKTLKTMTRRLVANK
notes: Vti1, vacuole Qb-SNARE, S. cerevisiae, soluble domain aa1-194; also called vacuole Qb-SNARE; source: E. coli (pRIL plasmid), purified (Ni-NTA); not shown: His7, N-terminal, kept; MBP, N-terminal, kept
In the case of B7, in assay [6], the binding result is given as “binds”.

B8: His6-Bos1 (soluble domain, aa1-222) (domain or fragment, S. cerevisiae, UniProt P25385 1-222, looked up)
chain: MNALYNHAVKQKNQLQQELARFEKNSVTAPISLQGSISATLVSLEKTVKQYAEHLNRYKEDTNAEEIDPKFANRLATLTQDLHDFTAKFKDLKQSYNENNSRTQLFGSGASHVMDSDNPFSTSETIMNKRNVGGASANGKEGSSNGGGLPLYQGLQKEQSVFERGNAQLDYILEMGQQSFENIVEQNKILSKVQDRMSNGLRTLGVSEQTITSINKRVFKDK
notes: Bos1, Golgi Qb-SNARE, S. cerevisiae, soluble domain aa1-222; also called Golgi Qb-SNARE; source: E. coli Rosetta2 pLys, purified (Ni-NTA); not shown: His6, N-terminal, kept
As for B8, the binding result in assay [1] was “binds”.
